# Experiments:
# Assay in all cases: Kinase Profiling Assay
# Format in all cases: biochemical
# Details in all cases: 100 μM
# [1] = biological target: CaMKIIδ(h) (Homo sapiens, UniProt Q13557)
# [2] = biological target: T1, DYRK2(h) (Homo sapiens, UniProt Q92630)
# T1 sequence (Q92630 1-601): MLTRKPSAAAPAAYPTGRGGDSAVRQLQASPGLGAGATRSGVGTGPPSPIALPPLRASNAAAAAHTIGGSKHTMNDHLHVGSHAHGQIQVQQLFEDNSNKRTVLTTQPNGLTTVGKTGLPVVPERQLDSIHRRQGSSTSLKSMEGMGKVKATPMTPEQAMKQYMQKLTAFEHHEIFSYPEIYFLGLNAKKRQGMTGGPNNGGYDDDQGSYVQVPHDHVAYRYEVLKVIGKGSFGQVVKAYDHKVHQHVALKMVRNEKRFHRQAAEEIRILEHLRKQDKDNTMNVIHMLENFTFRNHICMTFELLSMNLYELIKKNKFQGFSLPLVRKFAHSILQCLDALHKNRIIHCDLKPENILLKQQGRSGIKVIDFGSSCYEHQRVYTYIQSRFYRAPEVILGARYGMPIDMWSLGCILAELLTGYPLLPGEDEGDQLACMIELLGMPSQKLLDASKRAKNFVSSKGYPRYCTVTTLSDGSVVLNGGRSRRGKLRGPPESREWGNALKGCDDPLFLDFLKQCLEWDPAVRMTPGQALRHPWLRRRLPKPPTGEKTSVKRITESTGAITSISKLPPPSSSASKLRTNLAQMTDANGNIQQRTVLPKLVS
# [3] = biological target: FGFR2(h) (Homo sapiens, UniProt P21802)
# [4] = biological target: JNK3(h) (Homo sapiens, UniProt P53779)
# [5] = biological target: Lck(h) activated (Homo sapiens, UniProt P06239)
# [6] = biological target: MSK1(h) (Homo sapiens, UniProt O75582)
# [7] = biological target: NEK6(h) (Homo sapiens, UniProt Q9HC98)
# [8] = biological target: PAK5(h) (Homo sapiens, UniProt Q9P286)
# [9] = biological target: PKA(h) (Homo sapiens, UniProt P17612)
# [10] = biological target: T2, Rse(h) (Homo sapiens, UniProt Q06418)
# T2 sequence (Q06418 41-890): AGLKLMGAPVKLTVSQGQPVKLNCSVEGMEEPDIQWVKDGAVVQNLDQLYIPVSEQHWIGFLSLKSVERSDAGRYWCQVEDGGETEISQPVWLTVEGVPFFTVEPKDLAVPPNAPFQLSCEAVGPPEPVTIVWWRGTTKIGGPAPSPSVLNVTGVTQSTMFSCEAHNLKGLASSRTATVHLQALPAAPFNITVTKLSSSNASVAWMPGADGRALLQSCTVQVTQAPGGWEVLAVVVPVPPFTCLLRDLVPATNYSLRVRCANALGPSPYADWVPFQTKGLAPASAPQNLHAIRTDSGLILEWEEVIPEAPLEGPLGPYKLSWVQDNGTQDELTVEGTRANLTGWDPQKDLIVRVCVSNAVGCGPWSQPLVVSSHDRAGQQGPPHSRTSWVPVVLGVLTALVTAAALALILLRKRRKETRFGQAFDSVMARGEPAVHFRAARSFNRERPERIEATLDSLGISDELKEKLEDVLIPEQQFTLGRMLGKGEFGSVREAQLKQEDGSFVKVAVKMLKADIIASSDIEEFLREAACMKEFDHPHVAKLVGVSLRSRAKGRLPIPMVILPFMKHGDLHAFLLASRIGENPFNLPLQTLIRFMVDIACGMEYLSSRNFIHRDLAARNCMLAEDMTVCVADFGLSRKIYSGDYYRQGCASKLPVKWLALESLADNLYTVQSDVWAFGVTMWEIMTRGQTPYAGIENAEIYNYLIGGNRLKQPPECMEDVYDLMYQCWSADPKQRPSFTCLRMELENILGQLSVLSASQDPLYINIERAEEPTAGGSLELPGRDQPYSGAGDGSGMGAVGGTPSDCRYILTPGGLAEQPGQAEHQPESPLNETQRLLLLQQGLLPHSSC
# [11] = biological target: T3, TBK1(h) (Homo sapiens, UniProt Q9UHD2)
# T3 sequence (Q9UHD2 1-729): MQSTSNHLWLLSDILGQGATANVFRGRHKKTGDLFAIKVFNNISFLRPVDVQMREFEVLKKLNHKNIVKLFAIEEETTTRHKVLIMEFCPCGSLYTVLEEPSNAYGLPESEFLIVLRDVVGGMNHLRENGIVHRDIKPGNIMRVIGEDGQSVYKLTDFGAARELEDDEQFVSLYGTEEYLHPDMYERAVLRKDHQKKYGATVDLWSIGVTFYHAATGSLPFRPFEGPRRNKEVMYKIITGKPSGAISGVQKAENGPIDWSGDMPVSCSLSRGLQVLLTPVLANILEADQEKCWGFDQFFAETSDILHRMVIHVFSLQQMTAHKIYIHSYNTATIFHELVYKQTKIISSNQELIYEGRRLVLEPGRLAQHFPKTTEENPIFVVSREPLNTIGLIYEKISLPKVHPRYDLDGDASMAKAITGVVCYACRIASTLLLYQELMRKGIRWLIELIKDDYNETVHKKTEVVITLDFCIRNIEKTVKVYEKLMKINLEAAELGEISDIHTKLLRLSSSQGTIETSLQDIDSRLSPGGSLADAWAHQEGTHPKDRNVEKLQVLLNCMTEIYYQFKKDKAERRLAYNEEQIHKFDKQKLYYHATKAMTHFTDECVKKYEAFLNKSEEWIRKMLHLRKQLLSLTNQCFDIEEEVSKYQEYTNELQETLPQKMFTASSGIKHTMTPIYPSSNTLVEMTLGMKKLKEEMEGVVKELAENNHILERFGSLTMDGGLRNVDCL
# Chain of NEK6(h) (Q9HC98 whole entry): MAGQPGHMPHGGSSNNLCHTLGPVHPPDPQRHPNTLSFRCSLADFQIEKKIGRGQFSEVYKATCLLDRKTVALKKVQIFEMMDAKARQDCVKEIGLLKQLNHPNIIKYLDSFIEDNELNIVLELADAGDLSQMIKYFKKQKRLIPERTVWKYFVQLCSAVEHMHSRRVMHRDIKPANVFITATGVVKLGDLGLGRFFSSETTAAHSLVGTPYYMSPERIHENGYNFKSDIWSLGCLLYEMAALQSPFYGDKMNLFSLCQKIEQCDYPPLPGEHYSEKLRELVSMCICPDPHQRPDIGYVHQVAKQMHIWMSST
# Chain of Lck(h) activated (P06239 whole entry): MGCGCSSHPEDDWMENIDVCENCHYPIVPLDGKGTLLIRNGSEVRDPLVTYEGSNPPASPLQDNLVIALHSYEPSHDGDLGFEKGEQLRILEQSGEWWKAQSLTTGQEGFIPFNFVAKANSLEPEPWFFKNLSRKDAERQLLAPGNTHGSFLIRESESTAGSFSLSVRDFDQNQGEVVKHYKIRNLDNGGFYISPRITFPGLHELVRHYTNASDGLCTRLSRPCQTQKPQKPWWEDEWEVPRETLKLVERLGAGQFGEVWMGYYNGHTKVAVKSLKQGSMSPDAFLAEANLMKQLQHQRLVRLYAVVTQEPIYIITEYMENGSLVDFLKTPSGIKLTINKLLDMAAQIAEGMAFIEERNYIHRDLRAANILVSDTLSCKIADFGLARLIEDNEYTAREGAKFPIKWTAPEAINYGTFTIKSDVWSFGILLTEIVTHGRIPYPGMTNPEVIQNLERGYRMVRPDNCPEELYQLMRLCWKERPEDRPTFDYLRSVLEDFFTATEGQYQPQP
# Chain of CaMKIIδ(h) (Q13557 whole entry): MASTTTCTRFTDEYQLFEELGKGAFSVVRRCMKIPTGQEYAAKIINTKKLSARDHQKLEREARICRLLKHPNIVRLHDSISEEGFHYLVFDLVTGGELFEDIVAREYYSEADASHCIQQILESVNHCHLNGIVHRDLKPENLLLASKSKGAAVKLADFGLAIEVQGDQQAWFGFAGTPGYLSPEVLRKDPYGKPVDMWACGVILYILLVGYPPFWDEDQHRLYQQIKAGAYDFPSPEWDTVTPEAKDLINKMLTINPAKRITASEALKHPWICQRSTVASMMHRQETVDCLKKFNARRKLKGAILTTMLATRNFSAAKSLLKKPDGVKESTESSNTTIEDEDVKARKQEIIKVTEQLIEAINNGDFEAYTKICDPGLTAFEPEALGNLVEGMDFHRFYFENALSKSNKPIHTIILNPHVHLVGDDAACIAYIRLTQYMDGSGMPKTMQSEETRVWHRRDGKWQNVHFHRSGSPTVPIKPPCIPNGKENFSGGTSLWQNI
# Chain of PAK5(h) (Q9P286 whole entry): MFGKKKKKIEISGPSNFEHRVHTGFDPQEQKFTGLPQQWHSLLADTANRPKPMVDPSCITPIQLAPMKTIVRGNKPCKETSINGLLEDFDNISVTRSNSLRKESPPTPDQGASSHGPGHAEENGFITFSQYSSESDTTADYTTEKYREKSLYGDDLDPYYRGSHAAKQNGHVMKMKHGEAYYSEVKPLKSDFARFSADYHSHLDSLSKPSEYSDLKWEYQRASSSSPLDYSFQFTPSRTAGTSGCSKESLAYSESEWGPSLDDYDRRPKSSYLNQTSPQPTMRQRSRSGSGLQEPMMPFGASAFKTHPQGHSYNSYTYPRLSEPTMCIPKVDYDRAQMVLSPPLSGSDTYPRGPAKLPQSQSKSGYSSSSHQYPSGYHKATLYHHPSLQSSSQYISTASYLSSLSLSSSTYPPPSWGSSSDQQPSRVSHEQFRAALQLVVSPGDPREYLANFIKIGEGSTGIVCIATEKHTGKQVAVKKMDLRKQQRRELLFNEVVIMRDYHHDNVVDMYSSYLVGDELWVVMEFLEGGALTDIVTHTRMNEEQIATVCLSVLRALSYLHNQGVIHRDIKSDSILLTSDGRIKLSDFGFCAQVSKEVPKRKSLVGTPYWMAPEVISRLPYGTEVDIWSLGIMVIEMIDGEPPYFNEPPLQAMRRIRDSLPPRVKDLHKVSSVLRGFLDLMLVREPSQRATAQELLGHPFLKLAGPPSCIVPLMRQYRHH
# Chain of JNK3(h) (P53779 whole entry): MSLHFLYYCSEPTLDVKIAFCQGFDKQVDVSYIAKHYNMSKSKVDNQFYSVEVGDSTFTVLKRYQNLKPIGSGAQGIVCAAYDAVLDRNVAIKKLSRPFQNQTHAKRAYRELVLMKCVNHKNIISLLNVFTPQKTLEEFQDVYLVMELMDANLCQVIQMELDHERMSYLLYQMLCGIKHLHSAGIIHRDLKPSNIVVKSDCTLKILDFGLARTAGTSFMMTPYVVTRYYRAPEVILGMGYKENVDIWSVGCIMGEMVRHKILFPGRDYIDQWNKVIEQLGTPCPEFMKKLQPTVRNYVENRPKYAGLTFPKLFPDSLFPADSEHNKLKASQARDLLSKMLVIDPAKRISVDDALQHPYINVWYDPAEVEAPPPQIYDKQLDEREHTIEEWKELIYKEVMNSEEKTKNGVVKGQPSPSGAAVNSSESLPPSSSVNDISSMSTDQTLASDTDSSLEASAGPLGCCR
# Chain of MSK1(h) (O75582 whole entry): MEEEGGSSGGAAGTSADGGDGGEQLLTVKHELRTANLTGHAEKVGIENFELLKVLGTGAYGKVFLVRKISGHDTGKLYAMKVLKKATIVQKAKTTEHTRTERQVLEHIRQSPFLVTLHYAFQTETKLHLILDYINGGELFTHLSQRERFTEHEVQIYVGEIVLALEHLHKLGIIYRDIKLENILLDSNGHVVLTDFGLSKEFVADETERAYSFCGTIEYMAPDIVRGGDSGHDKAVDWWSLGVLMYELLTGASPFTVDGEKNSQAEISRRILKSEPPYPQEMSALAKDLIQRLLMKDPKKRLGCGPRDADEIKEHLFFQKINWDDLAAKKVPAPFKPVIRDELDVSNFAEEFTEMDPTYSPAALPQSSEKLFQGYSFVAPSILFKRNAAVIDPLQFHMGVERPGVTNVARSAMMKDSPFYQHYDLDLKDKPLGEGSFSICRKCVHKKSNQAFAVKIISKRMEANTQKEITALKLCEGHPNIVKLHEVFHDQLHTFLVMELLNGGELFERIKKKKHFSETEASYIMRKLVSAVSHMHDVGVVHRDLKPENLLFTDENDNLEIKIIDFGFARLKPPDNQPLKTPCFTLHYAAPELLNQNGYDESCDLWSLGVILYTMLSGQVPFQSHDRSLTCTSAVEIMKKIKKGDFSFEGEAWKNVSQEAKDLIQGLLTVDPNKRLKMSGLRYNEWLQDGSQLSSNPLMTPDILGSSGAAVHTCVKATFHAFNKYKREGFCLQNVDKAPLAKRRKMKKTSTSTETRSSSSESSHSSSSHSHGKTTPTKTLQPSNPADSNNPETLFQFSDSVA
Sequence,% activity [1],% activity [2],% activity [3],% activity [4],% activity [5],% activity [6],% activity [7],% activity [8],% activity [9],% activity [10],% activity [11]
YARAAARQARAKALNRQLGVA (Mammalian) [MMI-0200],2%,142%,73%,90%,90%,50%,98%,100%,110%,88%,98%
HRRIKAWLKKIKALARQLGVAA (Mammalian) [MMI-0500],1%,127%,12%,171%,76%,8%,49%,125%,118%,63%,16%
